Data from the domain aggregation screens of Martell et al. (2025).

Test: soluble fraction after stress (log2 fold change); higher = more stays soluble; pooled small domains, quantitative proteomics
Details: stress: 50 degC
Outline: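 Pooled custom libraries of small protein domains were each held under stress at 50°C. The read-out, high-throughput quantitative proteomics, tracked how much of each protein stayed soluble. This is reported as a base-two log fold change used to indicate aggregation propensity. Higher values mean more protein remains in solution.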

Point of comparison: “HMPSNVKIPDVTGKTVAQARSAIEAAGLKVGKEKDEYSDSAKKDSVIRTNPQAGTQRREGSTVDLIVS”, “soluble fraction (log2)” value 0.122. Against it:
- HMKSERHALILSLIEKKNVETQEDLAELLKERGVAVTQATVSRDIKELRLIKVLSETGGYKYATVDKAE — lower, -0.103
- HMKLRKINLIGIFGSKTAPSALVRLTNGRVLKVGLGELLDGGRVTAIGRSSLTYNKSGKSITLNMPI — lower, -2.73
- HMRMSLDEAKAVVLPIGEYKGRNMGEVLAIKPELIDFYASQKFNSSKYPYLKEAAQVILENQ — within 0.2 log units, -0.0538
- HMASMEDILAEAKTKFQEGDLFKSVNEGIQGTHKLTLPLRIKESRIVDASGAAVYREGIWATVDK — within 0.2 log units, 0.108
- HMSEGEMSQWIIAQAKQQGGGFQPDAARLLGSYVGNNTLRARQEIDKLLTYVGPSRVVTPEDVVLLTA — within 0.2 log units, -0.0143
- HMFSVVDKITLQEELKKLSKKEQLLIQLRYYDELNQEEIAKIFHVSQVQISRMEKKIIEKLKKQF — lower, -3.58
- HMRMSPRERKIYQFIENHPGTKSGEMAEKLGIPLPTIKRLLSDMVASKLLQKHGTGAGTNYSIEE — within 0.2 log units, 0.201
- HMSKKLLVLQTSDDAKAKDVLSQNGYQLDDGDKLSIIETEQTKMADVIKLLSDNAIDIEDVQHVH — within 0.2 log units, 0.217
- HMGIKYTNQRVEILNFLKDNLSHPTVDDVYEGVKKKLTRISKATVYQNLKFLASKGLIQEVNIKGVSRFEP — lower, -1.32
- HMQNNWFYEENGQRKGPVSENEMVQFIKSSVISHGTSVWKQGFPDWLKVENTDLRVHLDNSAP — within 0.2 log units, 0.136
- HMSEPTVVAINETLTSERLDRYLTTQLPHISRGGIQRLLRKGNILVDGKPAKPTQHPVAGQTVEITWPIPK — lower, -0.359
- HMYPDNEQTLSKLAFEFFKKRNIPISQSNINQIVTKSLGDRENLYNELLKIENFSTSGKKLTDNVIKKLIN — within 0.2 log units, 0.00831
- HMSAPAKKPKIKVDLSKVHAGTIVRHKGYGLGQVKGIDGAIIVVTFDGVDKKFQFPGGFENGFLFLTED — within 0.2 log units, -0.0311
- HMGLNEGLNEGQQKVIQHIQENEGIKVKEISLKLNMPIDTVDRHIRVLKNLNLIERRGSRKTGGYFISN — lower, -0.266
- HMVTDTGAIEKVIDEVIAANPKQVQEIADQRAAGHEKPKTLGWLVGQIMKASGGKVNPAAVNEILLKKLG — within 0.2 log units, 0.149
- HMPHILEITSSKILDELQDEKKMVYFHFEKQSNQYVYRLIFNSKNELMEFKKSLEKNSSILDVRADM — within 0.2 log units, 0.216
- HMEDPPISQEQRQALFKMAHDHLGKDEGNKAILTLIQSHGLNSTTGMKVSTYNTIMEELVSTIQSLAA — within 0.2 log units, -0.0686
- HMTIYPFNPNYLKDYQAYRVGLSLKEIDALLDFRSSGQWINSAEDFQRITGVSDSVLEQLIPYFKFS — lower, -2.49
- HMRQNPESFLNHKVKKNESLESLTKKYELTENEIIFYNPLIQKIGLKKRMILKIPIYNNQNLVTKSVD — within 0.2 log units, 0.256
- HMGLSNYEFNSISQTVKEKLEQGPLTLKALVDETAHLFAEDKVVSVVQWLIDQRDLAYDDHGLLQWKG — lower, -0.418
- HMSGMEKLAIQEIEKEIKSFVKGDILIELTGKNRATAYVSEKNVGALIGKKGERINSIEKRLGVGIDVRPY — within 0.2 log units, 0.00444
- HMGVITVRPPIVVRDFAIALNLKPFQVIGNLMELNKVVSVSSVIEEADARKVAERHGYTLEIRH — lower, -0.516
- HMANGTVKWFNTTKGFGFIAPETGGKDVFVHISAVERSGLTGLADDQKVTFDVEAGRDGRESAVNLAL — within 0.2 log units, 0.0396
- HMDYKYYIVKEPMVVKNLELPVGTRIVYFNTSLFGDSESSRPLKEKNIYQIFFPDDKPLIWGGVPVSLIER — lower, -1.97
- HMGIRYQLADDVTDEQITAMTGKKAKIAAAIKAAGSAVSKMNVAGEMGYDKQNPINKDFMELVDAGIIVPS — within 0.2 log units, 0.00228
- HMRRGFGYVRKLPSGRWQASFVGPDLARHSAPHTFETKGDAEGWLGRRQADVVAGEWRPPVP — within 0.2 log units, 0.205
- HMTEELQDMESRIIEAAKRVFVRKGYEATKMSDIALEVGLGRTALHYYFRTKEMLFDAIFGRLMGV — lower, -0.385
- HMNGGPHYLRDVRTSLGLSQADLAKAVGTSANMIHYLESGERALTLKWIRRISEALNVSPMRLIN — lower, -1.6
- HMKEIATKSELTYFIQRLLDLLEETNFFNPEERKKAMINHIEAIFRRNNLTLQELNMLHGIITSITR — lower, -2.62
